Patent US20230414780A1 (VECT HORUS, published 2023)
Each block holds one binder with its values, some of them ahead of it.

Key:
[1] = target: T1, human transferrin receptor (hTfR) fused to EGFP, on CHO cells (human, UniProt P02786 1-760); assay: apparent Kd, cell-based assay
T1 construct: whole, on cells; also called human TfR; CHO-hTfR-EGFP; not shown: EGFP from pEGFP-C1 vector, fused to the N-terminal (intracellular) end of hTfR

[2] = target: T1, human transferrin receptor (hTfR) fused …; assay: flow cytometry on CHO-hTfR-EGFP cells, 1 hr at 4 C, Alexa647 anti-hFc; apparent Kd, mean ± SEM of 3 experiments
Description: (§1) FIGS. 8A-8B: Apparent Kd determination of VHH-Fcs and Fc-VHHs on hTfR- and mTfR-expressing CHO cell lines. (A) CHO-hTfR-EGFP and CHO-mTfR-EGFP cells were incubated 1 hr at 4° C. with various concentrations of VHH-Fcs or Fc-VHHs, detected with an Alexa647-conjugated anti-hFc antibody (1/400). Measurements were performed using flow cytometry. The ratio of fluorescence intensity for each point was normalized with the corresponding EGFP signal (receptor expression) and gave rise to the arbitrary unit. Data are presented as mean±SEM of 3 independent experiments. (B) Characteristics of selected VHH-Fcs and Fc-VHHs: Molecular Weight (Da); Apparent Kd on human TfR (nM); Apparent Kd on mouse TfR (nM). Data are presented as mean±SEM of 3 independent experiments.
(§2) The binding properties of VHH-Fc and Fc-VHH fusion proteins with an affinity for the TfR were tested in flow cytometry experiments, and apparent affinity (K_{d app}) were determined. All experiments were performed in 96 well plates using 2-3×10⁵ cells/well, at 4° C. with shaking. […] After washes, cells were incubated for 1 hr with an Alexa647-conjugated anti-hFc antibody (Jackson ImmunoResearch). After 3 last washes and cells resuspension in PBS, fluorescence was immediately measured using a MACSQuant flow cytometer (Miltenyi), and results were analyzed with the MACSQuant software. […] The VHH-Fc and Fc-VHH K_{d app} were calculated using GraphPad Prism software (FIG. 8-B).

[3] = target: T2, mouse transferrin receptor (mTfR) fused to EGFP, on CHO cells (mouse, UniProt Q62351 1-763); assay: flow cytometry on CHO-mTfR-EGFP cells, 1 hr at 4 C, Alexa647 anti-hFc; apparent Kd, mean ± SEM of 3 experiments
T2 construct: whole, on cells; also called mouse TfR; CHO-mTfR-EGFP; not shown: EGFP
T2 sequence (Q62351 whole entry, the tested form may be a part): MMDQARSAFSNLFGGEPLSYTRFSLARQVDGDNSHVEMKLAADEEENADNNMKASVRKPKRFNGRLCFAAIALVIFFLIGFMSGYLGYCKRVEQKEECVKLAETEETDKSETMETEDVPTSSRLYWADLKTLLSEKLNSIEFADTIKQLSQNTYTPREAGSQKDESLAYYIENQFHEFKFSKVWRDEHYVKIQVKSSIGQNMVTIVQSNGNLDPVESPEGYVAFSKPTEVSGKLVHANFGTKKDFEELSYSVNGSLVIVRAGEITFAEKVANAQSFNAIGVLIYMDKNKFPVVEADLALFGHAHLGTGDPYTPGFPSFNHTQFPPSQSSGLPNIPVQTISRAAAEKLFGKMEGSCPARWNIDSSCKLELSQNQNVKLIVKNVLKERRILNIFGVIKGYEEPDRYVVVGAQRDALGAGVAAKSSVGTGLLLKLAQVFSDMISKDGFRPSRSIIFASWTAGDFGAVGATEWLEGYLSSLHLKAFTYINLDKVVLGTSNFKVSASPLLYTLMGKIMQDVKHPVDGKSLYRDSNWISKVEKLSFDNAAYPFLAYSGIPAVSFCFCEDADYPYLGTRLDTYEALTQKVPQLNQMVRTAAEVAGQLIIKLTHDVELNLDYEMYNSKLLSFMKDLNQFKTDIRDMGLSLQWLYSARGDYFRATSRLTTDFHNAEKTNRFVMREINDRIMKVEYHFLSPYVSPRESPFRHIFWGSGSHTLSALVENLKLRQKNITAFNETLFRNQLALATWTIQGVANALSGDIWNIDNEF
Description: as §1, §2

[4] = target: T3, murine TfR expressed by murine neuroblastoma Neuro-2a cells (mouse, UniProt Q62351 1-763); assay: competition with C5-Alexa680 (100 nM) on living Neuro-2a cells, 3 hrs at 37 C, flow cytometry; Ki/app, mean ± SD
T3 construct: whole, on cells; also called mTfR (N2a cells)
T3 sequence (Q62351 whole entry): as the sequence (Q62351 whole entry, the tested form may be a part) above
Description: (§3) The binding of VHH-Oligo and VHH-hFc-Oligo conjugates to mTfR was evaluated using a competition assay on living cells expressing the receptor of interest, namely murine neuroblastoma Neuro-2a cells (N2a). N2a cells were grown in Dulbecco's Modified Eagle Medium (DMEM) GlutaMAX supplemented with 10% v/v FBS in 5% CO₂ at 37° C. Cells were seeded two days before experiments in 96-well plates at a density of 50.000 cells/well. […] Resuspended cells were transferred in a 96-deepwell plate (V-bottom) containing 1% fetal bovine serum (FBS)/0.02% sodium azide in phosphate-buffered saline (PBS) and then centrifuged for 5 min at 2000 rpm at 4° C. After removing the supernatant, 5 mM EDTA in D-PBS and 4% paraformaldehyde (PFA) (v/v 1:1) were added into wells to fix cells for 15 min at room temperature. PFA was removed by centrifugation (5 min, 3000 rpm, 4° C.) and cells were resuspended with 5 mM EDTA in D-PBS. Then the cellular A680-associated fluorescence signal was quantified using an Attune™ NxT flow cytometer (Thermo Fisher Scientific) equipped with Attune™ NxT v3.1.2. Experimental data (experimental triplicates) were fitted with GraphPad Prism® software using a nonlinear fit to determine the apparent Ki inhibition constants.

[5] = target: T4, mouse TfR ectodomain fused to a mouse IgG1 Fc fragment (mouse, UniProt Q62351 89-763); assay: SPR, kinetic
T4 construct: extracellular domain; not shown: mouse IgG1 Fc fragment
T4 sequence (Q62351 89-763): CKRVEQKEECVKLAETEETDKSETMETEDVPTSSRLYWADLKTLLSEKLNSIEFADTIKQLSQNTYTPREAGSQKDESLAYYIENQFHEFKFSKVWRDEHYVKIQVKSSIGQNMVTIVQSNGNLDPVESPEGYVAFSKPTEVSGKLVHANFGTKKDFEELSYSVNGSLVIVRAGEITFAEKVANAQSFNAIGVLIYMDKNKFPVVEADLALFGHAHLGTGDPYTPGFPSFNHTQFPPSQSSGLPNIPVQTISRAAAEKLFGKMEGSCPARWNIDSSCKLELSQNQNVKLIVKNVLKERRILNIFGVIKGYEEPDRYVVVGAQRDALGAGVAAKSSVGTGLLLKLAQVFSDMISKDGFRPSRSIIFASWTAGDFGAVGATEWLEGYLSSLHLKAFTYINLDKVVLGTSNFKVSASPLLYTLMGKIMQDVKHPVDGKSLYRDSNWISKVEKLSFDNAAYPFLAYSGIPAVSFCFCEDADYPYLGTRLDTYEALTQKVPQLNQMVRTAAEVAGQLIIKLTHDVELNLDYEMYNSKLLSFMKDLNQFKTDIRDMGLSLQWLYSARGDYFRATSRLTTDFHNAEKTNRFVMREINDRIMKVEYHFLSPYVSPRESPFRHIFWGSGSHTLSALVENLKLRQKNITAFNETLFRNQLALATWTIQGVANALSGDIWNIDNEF
How it was run: (§4)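 TfR–mouse Fc fusions, produced in-house, captured on HC 1500M or CM5 chips either directly or via immobilized anti-mouse IgG. VHHs injected in single-cycle or multiple-cycle kinetic mode on Biacore T200.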

[6] = target: T5, human TfR ectodomain fused to a mouse IgG1 Fc fragment (human, UniProt P02786 89-760); assay: SPR, kinetic
T5 construct: extracellular domain; ectodomain fused to the N-terminal end of the Fc, made in-house; not shown: mouse IgG1 Fc fragment
T5 sequence (P02786 89-760): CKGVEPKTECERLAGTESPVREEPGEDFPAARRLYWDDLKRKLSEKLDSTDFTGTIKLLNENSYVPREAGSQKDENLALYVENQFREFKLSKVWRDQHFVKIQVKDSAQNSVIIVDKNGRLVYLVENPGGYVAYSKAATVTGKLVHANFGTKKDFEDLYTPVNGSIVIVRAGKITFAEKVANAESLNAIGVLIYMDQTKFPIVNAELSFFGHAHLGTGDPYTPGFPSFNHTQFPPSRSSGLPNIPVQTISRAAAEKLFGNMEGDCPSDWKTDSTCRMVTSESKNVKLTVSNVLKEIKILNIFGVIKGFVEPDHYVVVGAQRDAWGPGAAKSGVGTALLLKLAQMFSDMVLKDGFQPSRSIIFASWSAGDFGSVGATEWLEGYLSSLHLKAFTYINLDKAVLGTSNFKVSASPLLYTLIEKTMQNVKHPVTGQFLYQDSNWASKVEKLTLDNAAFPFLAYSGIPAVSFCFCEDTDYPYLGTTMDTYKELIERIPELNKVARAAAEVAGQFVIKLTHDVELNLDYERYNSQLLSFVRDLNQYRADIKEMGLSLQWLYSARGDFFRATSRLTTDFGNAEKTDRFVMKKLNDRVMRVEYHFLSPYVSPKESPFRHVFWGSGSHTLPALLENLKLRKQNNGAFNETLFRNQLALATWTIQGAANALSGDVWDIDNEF
How it was run: as §4

[7] = target: T6, rhesus monkey TfR ectodomain fused to a mouse IgG1 Fc fragment (rhesus monkey, UniProt I0FKY7 89-760); assay: SPR, kinetic
T6 construct: extracellular domain; not shown: mouse IgG1 Fc fragment
How it was run: as §4

[8] = target: T4, mouse TfR ectodomain fused to a mouse …; assay: SPR, at equilibrium
How it was run: as §4

[9] = target: T1, human transferrin receptor (hTfR) fused …; assay: flow cytometry on CHO-hTfR-EGFP cells, 1 hr at 4 C, anti-6His + Alexa647 anti-mouse; ratio to background fluorescence
Description: FIGS. 15A-15H: In vitro gene silencing activity of VHH-siGFPst1 bioconjugates. […] CHO-hTfR-EGFP cells were incubated 1 hr at 4° C. with various concentrations of the indicated compounds. Detection of VHHs was performed using a primary mouse anti-6His (1/1000) and an Alexa647-conjugated anti-mouse secondary antibody (1/400). Measurements of cell-surface signal associated to VHH were performed using flow cytometry. The results are expressed as the ratio of Alexa647-associated fluorescence intensity of test compounds to that of background fluorescence. […] The total fluorescence associated to the EGFP protein was then quantified using flow cytometry and rationalized to that of untreated (control) cells (set at 100%) *** p≤0.001. […] The total fluorescence associated with the EGFP protein was then quantified using flow cytometry and rationalized to that of untreated (control) cells (set at 100%). […] CHO-hTfR-EGFP cells were incubated with the indicated compounds at 1 μM during 120 hrs at 37° C. Data were processed and analyzed as described in (B). *** p≤0.001 vs. untreated cells. […] The total fluorescence associated with the EGFP protein was then quantified using flow cytometry and rationalized to that of untreated (control) cells (set at 100%).

[10] = target: T7, rhesus monkey transferrin receptor (rhTfR) fused to EGFP, on CHO cells (rhesus monkey); assay: apparent Kd, flow cytometry, CHO cells
T7 construct: whole, on cells; also called rhesus monkey TfR
How it was run: (§5)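 CHO cells expressing TfR-EGFP fusions, blocked in PBS/BSA 2%, then incubated with increasing VHH concentrations for 1 hr at 4° C. Bound VHH detected via anti-6His antibody and Alexa647 secondary, cells PFA-fixed, read by flow cytometry. Apparent Kd from nonlinear fit.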

[11] = target: T1, human transferrin receptor (hTfR) fused …; assay: apparent Kd, flow cytometry, CHO cells
How it was run: as §5

[12] = target: T2, mouse transferrin receptor (mTfR) fused …; assay: apparent Kd, flow cytometry, CHO cells
How it was run: as §5

[13] = target: T3, murine TfR expressed by murine …; assay: competition with the fluorescent reference VHH on Neuro-2a cells as in FIG. 25; Ki/app on mTfR, free VHH
Description: as §3

[14] = target: T1, human transferrin receptor (hTfR) fused …; assay: apparent Kd, flow cytometry, CHO cells; remark: listed apart in the source
Description: All experiments were performed in 96 well plates using 2×10⁵ cells/well, at 4° C. with shaking. CHO cell lines stably expressing the hTfR or the mTfR fused to EGFP or CHO WT cells were saturated with PBS/BSA 2% solution during 30 min to avoid non-specific binding, followed by incubation with purified VHHs at concentrations ranging from 50 μM to 5 μM for 1 hr. After one wash in PBS/BSA 2%, cells were incubated for 1 hr with an anti-6His tag antibody (mouse), washed twice with PBS/BSA 2%, and incubated for 45 min with an Alexa647-conjugated anti-mouse secondary antibody. After two last washes in PBS/BSA 2%, cells were fixed by incubation for 15 min with PBS/PFA 2%, washed once with PBS and finally resuspended in PBS and stored at 4° C. Fluorescence levels were assessed using an Attune NxT Flow Cytometer (Thermo Fisher Scientific). […] No labeling of the CHO WT control cells was detected with all the tested VHHs (not shown). The VHH K_{d app} were calculated using GraphPad Prism software (FIG. 11-B; 12-B).

T1 sequence (P02786 whole entry, the tested form may be a part): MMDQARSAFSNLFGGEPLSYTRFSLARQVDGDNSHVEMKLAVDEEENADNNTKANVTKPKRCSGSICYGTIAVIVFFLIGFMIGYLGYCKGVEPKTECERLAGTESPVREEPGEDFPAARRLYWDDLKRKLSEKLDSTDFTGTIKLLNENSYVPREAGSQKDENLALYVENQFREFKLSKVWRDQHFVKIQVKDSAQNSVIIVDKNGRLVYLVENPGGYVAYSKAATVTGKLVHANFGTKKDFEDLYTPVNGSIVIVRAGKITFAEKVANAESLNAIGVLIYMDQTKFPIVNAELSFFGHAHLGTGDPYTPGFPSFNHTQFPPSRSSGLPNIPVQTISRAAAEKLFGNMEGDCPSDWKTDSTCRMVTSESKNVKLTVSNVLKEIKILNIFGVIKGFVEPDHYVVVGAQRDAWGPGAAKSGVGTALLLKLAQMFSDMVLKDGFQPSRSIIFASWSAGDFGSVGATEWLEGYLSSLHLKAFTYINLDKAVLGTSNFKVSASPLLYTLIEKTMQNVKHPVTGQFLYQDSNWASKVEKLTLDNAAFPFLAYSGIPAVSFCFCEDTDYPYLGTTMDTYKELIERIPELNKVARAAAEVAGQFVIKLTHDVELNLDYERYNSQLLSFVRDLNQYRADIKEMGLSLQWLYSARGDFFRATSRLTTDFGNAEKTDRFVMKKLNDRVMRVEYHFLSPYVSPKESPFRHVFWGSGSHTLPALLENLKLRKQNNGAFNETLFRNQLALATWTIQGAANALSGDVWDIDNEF

Kd [1]: 1860 nM
B1: C12b-NT(8-13) (VHH)
VHH: QVQLVQSGGGLVQPGGSLRLSCAASGFTFSAYAMSWVRQAPGKGRELVASISRTGDGTYYADGMKGRFTISRDNAENTVSLQINSLKPEDTAIYYCGAGINPTKYWGQGTQVTVSS

Kd [2]: 1.5 nM
Kd [3]: 51 nM
B2: Fc-VHH B (Fc fusion)
VHH: EVQLVESGGGVVQPGGSLRLSCAASGEIFSINFMRWYRQAPGKQREWVAGFTRDGSTNYPDSAKGRFTISRDNAKNTVYLQIDSLKPEDTAVYYCYMLDTWGQGTQVTVSS
modifications: Genetic fusion with the VHH at the C-terminus of a human IgG1 Fc. It forms a homodimer, so it is bivalent.
notes: not shown: Human IgG1 Fc of the pINFUSE-IgG1-Fc2 vector (InvivoGen), N-terminal to the VHH, and any junction or linker residues

Ki [4]: 60.9 nM
B3: B8-MALAT1-ASO (VHH, not shown: small tags and cut ends)
VHH: EVQLVESGGGVVQPGGSLRLSCAASGEIFSINFMRWYRQAPGKQREWVAGFTRDGSTNYPDSAKGRFTISRDNAKNTVYLQIDSLKPEDTAVYYCYMLDTWGQGTQVTVSS
modifications: MALAT1 gapmer antisense oligonucleotide linked to the VHH
notes: also called VHH-MALAT1-ASO wherein VHH is B8

Kd [5]: 27 nM
koff [5]: 0.0243 s⁻¹
kon [5]: 1.23e+06 M⁻¹ s⁻¹
Kd [6]: 0.0559 nM
koff [6]: 3.06e-05 s⁻¹
kon [6]: 677000 M⁻¹ s⁻¹
Kd [7]: 0.0951 nM
koff [7]: 9.54e-05 s⁻¹
kon [7]: 1e+06 M⁻¹ s⁻¹
Kd [8]: 37.5 nM
EC50 (read off the curve) [9]: ~4 nM
Kd [10]: 2.2 nM
Kd [11]: 1.7 nM
Kd [12]: 7.5 nM
Ki [13]: 56.2 nM
Ki [4]: 56.2 nM
B4: VHH B (B8) (VHH)
VHH: EVQLVESGGGVVQPGGSLRLSCAASGEIFSINFMRWYRQAPGKQREWVAGFTRDGSTNYPDSAKGRFTISRDNAKNTVYLQIDSLKPEDTAVYYCYMLDTWGQGTQVTVSS

Kd [2]: 1.2 nM
Kd [3]: 0.61 nM
B5: VHH B-Fc (Fc fusion)
chain: EVQLVESGGGVVQPGGSLRLSCAASGEIFSINFMRWYRQAPGKQREWVAGFTRDGSTNYPDSAKGRFTISRDNAKNTVYLQIDSLKPEDTAVYYCYMLDTWGQGTQVTVSS
notes: not shown: human IgG1 Fc fragment of the pINFUSE-IgG1-Fc2 vector (InvivoGen)

Kd [2]: 1.3 nM
Kd [3]: 22 nM
B6: Fc-VHH A (Fc fusion)
VHH: EVQLVESGGGVVQPGGSLKLSCVASGTDFSINFIRWYRQAPGKQREFVAGFTATGNTNYADSMKGRFTISRDNTKNAVYLQIDSLKPEDTAVYYCYMLDKWGQGTQVTVSS
modifications: Genetic fusion with the VHH at the C-terminus of a human IgG1 Fc. It forms a homodimer, so it is bivalent.
notes: as for B2

Kd [14]: 363 nM
B7: VHH A12 (C5^V12) (VHH)
VHH: EVQLVESGGGVVQPGGSLKLSCVASGTDFSINFIRWYRQAPGKQREFVAGITATGNTNYADSMKGRFTISRDNTKNAVYLQIDSLKPEDTAVYYCYMLDKWGQGTQVTVSS

Kd [1]: 16.8 nM
B8: C5h18-NT(8-13) (VHH)
VHH: EVQLVESGGGVVQPGGSLKLSCVASGTDFSINFIRWYRQAPGKGLEFVAGFTATGNTNYADSVKGRFTISRDNAKNTLYLQMNSLRPEDTAVYYCYMLDKWGQGTQVTVSS
